Test results taken from patent US20110097262A1 (PIERRE FABRE MEDICAMENT, published 2011).

Biological target: C-Met-Rluc (R. reniformis, UniProt P08581 25-1390; P27652 1-311)
Assay: cell-based or functional assay

Sequence of C-Met-Rluc (P08581 other isoform, or with tags, fused parts or gaps): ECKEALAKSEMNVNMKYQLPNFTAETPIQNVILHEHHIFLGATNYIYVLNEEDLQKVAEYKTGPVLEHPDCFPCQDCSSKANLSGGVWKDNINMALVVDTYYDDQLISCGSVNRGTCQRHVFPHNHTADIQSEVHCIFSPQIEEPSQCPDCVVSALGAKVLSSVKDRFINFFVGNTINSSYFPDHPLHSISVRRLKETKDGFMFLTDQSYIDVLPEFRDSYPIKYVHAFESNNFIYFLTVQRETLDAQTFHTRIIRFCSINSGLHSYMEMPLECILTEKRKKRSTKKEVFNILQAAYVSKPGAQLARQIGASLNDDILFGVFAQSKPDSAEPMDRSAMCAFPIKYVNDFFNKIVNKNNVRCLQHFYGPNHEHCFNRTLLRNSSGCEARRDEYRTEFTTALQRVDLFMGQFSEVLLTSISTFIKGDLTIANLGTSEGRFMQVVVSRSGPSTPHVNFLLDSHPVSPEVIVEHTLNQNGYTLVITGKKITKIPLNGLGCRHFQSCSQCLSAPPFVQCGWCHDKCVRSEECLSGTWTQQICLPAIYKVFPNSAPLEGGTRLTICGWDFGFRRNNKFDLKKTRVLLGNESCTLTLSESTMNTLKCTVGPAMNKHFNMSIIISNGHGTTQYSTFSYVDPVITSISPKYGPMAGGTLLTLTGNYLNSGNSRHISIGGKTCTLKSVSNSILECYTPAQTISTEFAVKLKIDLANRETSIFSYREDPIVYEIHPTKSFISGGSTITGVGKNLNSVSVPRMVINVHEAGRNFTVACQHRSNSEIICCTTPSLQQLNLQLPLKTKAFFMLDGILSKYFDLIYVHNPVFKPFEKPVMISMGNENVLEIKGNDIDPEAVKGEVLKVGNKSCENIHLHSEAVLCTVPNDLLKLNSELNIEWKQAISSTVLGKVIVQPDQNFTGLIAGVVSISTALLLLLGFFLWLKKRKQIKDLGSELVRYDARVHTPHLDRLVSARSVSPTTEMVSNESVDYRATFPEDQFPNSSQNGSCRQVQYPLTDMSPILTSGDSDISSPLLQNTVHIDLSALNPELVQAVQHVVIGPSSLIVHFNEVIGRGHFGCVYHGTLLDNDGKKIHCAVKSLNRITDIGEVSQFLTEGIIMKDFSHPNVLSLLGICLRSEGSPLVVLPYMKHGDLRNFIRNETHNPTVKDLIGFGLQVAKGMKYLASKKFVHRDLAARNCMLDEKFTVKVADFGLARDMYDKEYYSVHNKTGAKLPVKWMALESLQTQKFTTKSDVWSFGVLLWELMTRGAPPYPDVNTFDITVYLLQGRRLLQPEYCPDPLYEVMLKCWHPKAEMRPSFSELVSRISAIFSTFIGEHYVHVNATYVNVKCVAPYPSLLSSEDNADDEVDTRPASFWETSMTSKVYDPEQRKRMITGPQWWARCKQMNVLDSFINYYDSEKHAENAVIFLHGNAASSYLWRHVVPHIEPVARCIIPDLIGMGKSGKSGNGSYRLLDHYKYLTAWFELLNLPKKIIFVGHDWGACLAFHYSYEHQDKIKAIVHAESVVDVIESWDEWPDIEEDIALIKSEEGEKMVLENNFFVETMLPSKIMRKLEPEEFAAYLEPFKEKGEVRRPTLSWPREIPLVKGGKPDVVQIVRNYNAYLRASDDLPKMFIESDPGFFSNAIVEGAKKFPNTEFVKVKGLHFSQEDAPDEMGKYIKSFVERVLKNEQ

Row | Binder | BRET signal by Mab alone, c-Met activation model [%] | inhibition of HGF induced BRET signal, c-Met activation model [%]
1 | [224G11][TH7chim] (antibody, human IgG1) heavy: not shown light: DIVLTQSPASLAVSLGQRATISCRASESVDSYANSFMHWYQQKPGQPPKLLIYRASNLESGIPARFSGSGSRTDFTLTINPVEADDVATYYCQQSKEDPLTFGSGTKLEMKRTVAAPSVFIFPPSDEQLKSGTASVVCLLNNFYPREAKVQWKVDNALQSGNSQESVTEQDSKDSTYSLSSTLTLSKADYEKHKVYACEVTHQGLSSPVTKSFNRGEC | -6.9 | –
2 | [224G11] [IgG2chim] (antibody) heavy: EVQLQQSGPELVKPGASVKISCKTSGYIFTAYTMHWVRQSLGESLDWIGGIKPNNGLANYNQKFKGKATLTVDKSSSTAYMDLRSLTSEDSAVYYCARSEITTEFDYWGQGTALTVSSASTKGPSVFPLAPCSRSTSESTAALGCLVKDYFPEPVTVSWNSGALTSGVHTFPAVLQSSGLYSLSSVVTVPSSNFGTQTYTCNVDHKPSNTKVDKTVERKCCVECPPCPAPPVAGPSVFLFPPKPKDTLMISRTPEVTCVVVDVSHEDPEVQFNWYVDGVEVHNAKTKPREEQFNSTFRVVSVLTVVHQDWLNGKEYKCKVSNKGLPAPIEKTISKTKGQPREPQVYTLPPSREEMTKNQVSLTCLVKGFYPSDIAVEWESNGQPENNYKTTPPMLDSDGSFFLYSKLTVDKSRWQQGNVFSCSVMHEALHNHYTQKSLSLSPG light: DIVLTQSPASLAVSLGQRATISCRASESVDSYANSFMHWYQQKPGQPPKLLIYRASNLESGIPARFSGSGSRTDFTLTINPVEADDVATYYCQQSKEDPLTFGSGTKLEMKRTVAAPSVFIFPPSDEQLKSGTASVVCLLNNFYPREAKVQWKVDNALQSGNSQESVTEQDSKDSTYSLSSTLTLSKADYEKHKVYACEVTHQGLSSPVTKSFNRGEC | – | 66.3
3 | [224G11] [MHchim] (antibody, human IgG1, V domains shown) VH: EVQLQQSGPELVKPGASVKISCKTSGYIFTAYTMHWVRQSLGESLDWIGGIKPNNGLANYNQKFKGKATLTVDKSSSTAYMDLRSLTSEDSAVYYCARSEITTEFDYWGQGTALTVSS VL: DIVLTQSPASLAVSLGQRATISCRASESVDSYANSFMHWYQQKPGQPPKLLIYRASNLESGIPARFSGSGSRTDFTLTINPVEADDVATYYCQQSKEDPLTFGSGTKLEMKR | 5.1 | –
4 | [224G11] [MMCHchim] (antibody, human IgG1, V domains shown) VH: EVQLQQSGPELVKPGASVKISCKTSGYIFTAYTMHWVRQSLGESLDWIGGIKPNNGLANYNQKFKGKATLTVDKSSSTAYMDLRSLTSEDSAVYYCARSEITTEFDYWGQGTALTVSS VL: DIVLTQSPASLAVSLGQRATISCRASESVDSYANSFMHWYQQKPGQPPKLLIYRASNLESGIPARFSGSGSRTDFTLTINPVEADDVATYYCQQSKEDPLTFGSGTKLEMKR | -2 | –
5 | [224G11] [MUP9Hchim] (antibody, human IgG1, V domains shown) VH: EVQLQQSGPELVKPGASVKISCKTSGYIFTAYTMHWVRQSLGESLDWIGGIKPNNGLANYNQKFKGKATLTVDKSSSTAYMDLRSLTSEDSAVYYCARSEITTEFDYWGQGTALTVSS VL: DIVLTQSPASLAVSLGQRATISCRASESVDSYANSFMHWYQQKPGQPPKLLIYRASNLESGIPARFSGSGSRTDFTLTINPVEADDVATYYCQQSKEDPLTFGSGTKLEMKR | 7.6 | –
